Data published in patent publication US20210338838A1 (UNIVERSITY OF UTAH RESEARCH FOUNDATION, published 2021).

T1: monomeric C-reactive protein (CRP) (UniProt P02741 19-224)
T1 sequence (looked up): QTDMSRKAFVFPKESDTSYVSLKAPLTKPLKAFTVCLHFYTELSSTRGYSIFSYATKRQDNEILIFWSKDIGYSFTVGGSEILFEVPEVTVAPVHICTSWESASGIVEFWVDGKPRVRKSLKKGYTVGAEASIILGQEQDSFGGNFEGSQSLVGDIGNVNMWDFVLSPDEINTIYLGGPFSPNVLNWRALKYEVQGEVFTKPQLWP


Tests used:
[1] = target: T1, monomeric C-reactive protein (CRP); experiment: relative CRP-binding assay, detection antibody AbCam OX-24 (#Ab112197)
[2] = target: T2, MDA-modified LDL particles; experiment: relative MDA-binding assay, percent of CFH-Risk, detection antibody AbCam OX-24 (#Ab112197)
T2 construct: Not a plain protein; also called MDA-LDL; MDA adducts

[3] = target: T1, monomeric C-reactive protein (CRP); experiment: relative CRP-binding assay, percent of CFH-Risk, detection antibody AbCam OX-24 (#Ab112197)
[4] = target: T2, MDA-modified LDL particles; experiment: relative MDA-binding assay, detection antibody AbCam OX-24 (#Ab112197)
[5] = target: T1, monomeric C-reactive protein (CRP); experiment: rank of binding affinity among six proteins, plate-based binding assays
[6] = target: T2, MDA-modified LDL particles; experiment: as above
[7] = target: T2, MDA-modified LDL particles; experiment: plate-based binding assay, His-tagged recombinant protein from HEK293 cells

| Binder | Binding Potential [1] | % FH-Risk [2] | % FH-Risk [3] | Binding Potential [4] | Binding Affinity Rank (1 best to 6 worst) [5] | Binding Affinity Rank (1 best to 6 worst) [6] | Kd [7] |
| --- | --- | --- | --- | --- | --- | --- | --- |
| CFH-Del (CFH of the CFHR3/1 deletion haplotype, V62-Y402-E936) (other, also called 3,1 Deletion (Del)) EDCNELPPRRNTEILTGSWSDQTYPEGTQAIYKCRPGYRSLGNVIMVCRKGEWVALNPLRKCQKRPCGHPGDTPFGTFTLTGGNVFEYGVKAVYTCNEGYQLLGEINYRECDTDGWTNDIPICEVVKCLPVTAPENGKIVSSAMEPDREYHFGQAVRFVCNSGYKIEGDEEMHCSDDGFWSKEKPKCVEISCKSPDVINGSPISQKIIYKENERFQYKCNMGYEYSERGDAVCTESGWRPLPSCEEKSCDNPYIPNGDYSPLRIKHRTGDEITYQCRNGFYPATRGNTAKCTSTGWIPAPRCTLKPCDYPDIKHGGLYHENMRRPYFPVAVGKYYSYYCDEHFETPSGSYWDHIHCTQDGWSPAVPCLRKCYFPYLENGYNQNYGRKFVQGKSIDVACHPGYALPKAQTTVTCMENGWSPTPRCIRVKTCSKSSIDIENGFISESQYTYALKEKAKYQCKLGYVTADGETSGSITCGKDGWSAQPTCIKSCDIPVFMNARTKNDFTWFKLNDTLDYECHDGYESNTGSTTGSIVCGYNGWSDLPICYERECELPKIDVHLVPDRKKDQYKVGEVLKFSCKPGFTIVGPNSVQCYHFGLSPDLPICKEQVQSCGPPPELLNGNVKEKTKEEYGHSEVVEYYCNPRFLMKGPNKIQCVDGEWTTLPVCIVEESTCGDIPELEHGWAQLSSPPYYYGDSVEFNCSESFTMIGHRSITCIHGVWTQLPQCVAIDKLKKCKSSNLIILEEHLKNKKEFDHNSNIRYRCRGKEGWIHTVCINGRWDPEVNCSMAQIQLCPPPPQIPNSHNMTTTLNYRDGEKVSVLCQENYLIQEGEEITCKDGRWQSIPLCVEKIPCSQPPQIEHGTINSSRSSQESYAHGTKLSYTCEGGFRISEENETTCYMGKWSSPPQCEGLPCKSPPEISHGVVAHMSDSYQYGEEVTYKCFEGFGIDGPAIAKCLGEKWSHPPSCIKTDCLSLPSFENAIPMGEKKDVYKAGEQVTYTCATYYKMDGASNVTCINSRWTGRPTCRDTSCVNPPTVQNAYIVSRQMSKYPSGERVRYQCRSPYEMFGDEEVMCLNGNWTEPPQCKDSTGKCGPPPPIDNGDITSFPLSVYAPASSVEYQCQNLYQLEGNKRITCRNGQWSEPPKCLHPCVISREIMENYNIALRWTAKQKLYSRTGESVEFVCKRGYRLSSRSHTLRTTCWDGKLEYPTCAKR | 14 | 145% | 972% | 43 |  |  |  |
| CFH-V62-H402-E936 (risk variant of full-length CFH) (other, also called CFH-Risk; CFH-risk protein) EDCNELPPRRNTEILTGSWSDQTYPEGTQAIYKCRPGYRSLGNVIMVCRKGEWVALNPLRKCQKRPCGHPGDTPFGTFTLTGGNVFEYGVKAVYTCNEGYQLLGEINYRECDTDGWTNDIPICEVVKCLPVTAPENGKIVSSAMEPDREYHFGQAVRFVCNSGYKIEGDEEMHCSDDGFWSKEKPKCVEISCKSPDVINGSPISQKIIYKENERFQYKCNMGYEYSERGDAVCTESGWRPLPSCEEKSCDNPYIPNGDYSPLRIKHRTGDEITYQCRNGFYPATRGNTAKCTSTGWIPAPRCTLKPCDYPDIKHGGLYHENMRRPYFPVAVGKYYSYYCDEHFETPSGSYWDHIHCTQDGWSPAVPCLRKCYFPYLENGYNQNHGRKFVQGKSIDVACHPGYALPKAQTTVTCMENGWSPTPRCIRVKTCSKSSIDIENGFISESQYTYALKEKAKYQCKLGYVTADGETSGSITCGKDGWSAQPTCIKSCDIPVFMNARTKNDFTWFKLNDTLDYECHDGYESNTGSTTGSIVCGYNGWSDLPICYERECELPKIDVHLVPDRKKDQYKVGEVLKFSCKPGFTIVGPNSVQCYHFGLSPDLPICKEQVQSCGPPPELLNGNVKEKTKEEYGHSEVVEYYCNPRFLMKGPNKIQCVDGEWTTLPVCIVEESTCGDIPELEHGWAQLSSPPYYYGDSVEFNCSESFTMIGHRSITCIHGVWTQLPQCVAIDKLKKCKSSNLIILEEHLKNKKEFDHNSNIRYRCRGKEGWIHTVCINGRWDPEVNCSMAQIQLCPPPPQIPNSHNMTTTLNYRDGEKVSVLCQENYLIQEGEEITCKDGRWQSIPLCVEKIPCSQPPQIEHGTINSSRSSQESYAHGTKLSYTCEGGFRISEENETTCYMGKWSSPPQCEGLPCKSPPEISHGVVAHMSDSYQYGEEVTYKCFEGFGIDGPAIAKCLGEKWSHPPSCIKTDCLSLPSFENAIPMGEKKDVYKAGEQVTYTCATYYKMDGASNVTCINSRWTGRPTCRDTSCVNPPTVQNAYIVSRQMSKYPSGERVRYQCRSPYEMFGDEEVMCLNGNWTEPPQCKDSTGKCGPPPPIDNGDITSFPLSVYAPASSVEYQCQNLYQLEGNKRITCRNGQWSEPPKCLHPCVISREIMENYNIALRWTAKQKLYSRTGESVEFVCKRGYRLSSRSHTLRTTCWDGKLEYPTCAKR | 1 | 100% | 100% | 30 | 6 rank | 6 rank |  |
| CFHT-Neu/Del (truncated CFH of the neutral and deletion haplotypes, V62-Y402) (other) EDCNELPPRRNTEILTGSWSDQTYPEGTQAIYKCRPGYRSLGNVIMVCRKGEWVALNPLRKCQKRPCGHPGDTPFGTFTLTGGNVFEYGVKAVYTCNEGYQLLGEINYRECDTDGWTNDIPICEVVKCLPVTAPENGKIVSSAMEPDREYHFGQAVRFVCNSGYKIEGDEEMHCSDDGFWSKEKPKCVEISCKSPDVINGSPISQKIIYKENERFQYKCNMGYEYSERGDAVCTESGWRPLPSCEEKSCDNPYIPNGDYSPLRIKHRTGDEITYQCRNGFYPATRGNTAKCTSTGWIPAPRCTLKPCDYPDIKHGGLYHENMRRPYFPVAVGKYYSYYCDEHFETPSGSYWDHIHCTQDGWSPAVPCLRKCYFPYLENGYNQNYGRKFVQGKSIDVACHPGYALPKAQTTVTCMENGWSPTPRCIRVSFTL | 101 | 94% | 6870% | 28 |  |  |  |
| CFHT-V62-H402 (risk variant of truncated CFH) (other, also called CFHT-Risk) EDCNELPPRRNTEILTGSWSDQTYPEGTQAIYKCRPGYRSLGNVIMVCRKGEWVALNPLRKCQKRPCGHPGDTPFGTFTLTGGNVFEYGVKAVYTCNEGYQLLGEINYRECDTDGWTNDIPICEVVKCLPVTAPENGKIVSSAMEPDREYHFGQAVRFVCNSGYKIEGDEEMHCSDDGFWSKEKPKCVEISCKSPDVINGSPISQKIIYKENERFQYKCNMGYEYSERGDAVCTESGWRPLPSCEEKSCDNPYIPNGDYSPLRIKHRTGDEITYQCRNGFYPATRGNTAKCTSTGWIPAPRCTLKPCDYPDIKHGGLYHENMRRPYFPVAVGKYYSYYCDEHFETPSGSYWDHIHCTQDGWSPAVPCLRKCYFPYLENGYNQNHGRKFVQGKSIDVACHPGYALPKAQTTVTCMENGWSPTPRCIRVSFTL | 2 | 35% | 131% | 10 | 5 rank | 5 rank |  |

Now from value to binder:

| Binding Potential [1] | % FH-Risk [2] | % FH-Risk [3] | Binding Potential [4] | Binding Affinity Rank (1 best to 6 worst) [5] | Binding Affinity Rank (1 best to 6 worst) [6] | Kd [7] | Binder |
| --- | --- | --- | --- | --- | --- | --- | --- |
| 14 | 130% | 956% | 39 |  |  |  | CFH-Neu (neutral variant of full-length CFH, V62-Y402-D936) (other, also called Neutral (Neu)) EDCNELPPRRNTEILTGSWSDQTYPEGTQAIYKCRPGYRSLGNVIMVCRKGEWVALNPLRKCQKRPCGHPGDTPFGTFTLTGGNVFEYGVKAVYTCNEGYQLLGEINYRECDTDGWTNDIPICEVVKCLPVTAPENGKIVSSAMEPDREYHFGQAVRFVCNSGYKIEGDEEMHCSDDGFWSKEKPKCVEISCKSPDVINGSPISQKIIYKENERFQYKCNMGYEYSERGDAVCTESGWRPLPSCEEKSCDNPYIPNGDYSPLRIKHRTGDEITYQCRNGFYPATRGNTAKCTSTGWIPAPRCTLKPCDYPDIKHGGLYHENMRRPYFPVAVGKYYSYYCDEHFETPSGSYWDHIHCTQDGWSPAVPCLRKCYFPYLENGYNQNYGRKFVQGKSIDVACHPGYALPKAQTTVTCMENGWSPTPRCIRVKTCSKSSIDIENGFISESQYTYALKEKAKYQCKLGYVTADGETSGSITCGKDGWSAQPTCIKSCDIPVFMNARTKNDFTWFKLNDTLDYECHDGYESNTGSTTGSIVCGYNGWSDLPICYERECELPKIDVHLVPDRKKDQYKVGEVLKFSCKPGFTIVGPNSVQCYHFGLSPDLPICKEQVQSCGPPPELLNGNVKEKTKEEYGHSEVVEYYCNPRFLMKGPNKIQCVDGEWTTLPVCIVEESTCGDIPELEHGWAQLSSPPYYYGDSVEFNCSESFTMIGHRSITCIHGVWTQLPQCVAIDKLKKCKSSNLIILEEHLKNKKEFDHNSNIRYRCRGKEGWIHTVCINGRWDPEVNCSMAQIQLCPPPPQIPNSHNMTTTLNYRDGEKVSVLCQENYLIQEGEEITCKDGRWQSIPLCVEKIPCSQPPQIEHGTINSSRSSQESYAHGTKLSYTCEGGFRISEENETTCYMGKWSSPPQCEGLPCKSPPDISHGVVAHMSDSYQYGEEVTYKCFEGFGIDGPAIAKCLGEKWSHPPSCIKTDCLSLPSFENAIPMGEKKDVYKAGEQVTYTCATYYKMDGASNVTCINSRWTGRPTCRDTSCVNPPTVQNAYIVSRQMSKYPSGERVRYQCRSPYEMFGDEEVMCLNGNWTEPPQCKDSTGKCGPPPPIDNGDITSFPLSVYAPASSVEYQCQNLYQLEGNKRITCRNGQWSEPPKCLHPCVISREIMENYNIALRWTAKQKLYSRTGESVEFVCKRGYRLSSRSHTLRTTCWDGKLEYPTCAKR |
|  |  |  |  | 1 rank | 3 rank | 290 nM | eCFHT-SK (engineered truncated CFH, I62-Y402, ending in SKSFTL) (other, Non-natural variant of human CFHT with SK inserted before the C-terminal SFTL; In the Western blot it was expressed from eCFH/T v4.2 in RPE1 cells; also called protective eCFHT-SK; truncated product of eCFH/T v4.2) EDCNELPPRRNTEILTGSWSDQTYPEGTQAIYKCRPGYRSLGNIIMVCRKGEWVALNPLRKCQKRPCGHPGDTPFGTFTLTGGNVFEYGVKAVYTCNEGYQLLGEINYRECDTDGWTNDIPICEVVKCLPVTAPENGKIVSSAMEPDREYHFGQAVRFVCNSGYKIEGDEEMHCSDDGFWSKEKPKCVEISCKSPDVINGSPISQKIIYKENERFQYKCNMGYEYSERGDAVCTESGWRPLPSCEEKSCDNPYIPNGDYSPLRIKHRTGDEITYQCRNGFYPATRGNTAKCTSTGWIPAPRCTLKPCDYPDIKHGGLYHENMRRPYFPVAVGKYYSYYCDEHFETPSGSYWDHIHCTQDGWSPAVPCLRKCYFPYLENGYNQNYGRKFVQGKSIDVACHPGYALPKAQTTVTCMENGWSPTPRCIRVSKSFTL |
